Measured values reported in patent US20040048242.

Target: T1, GST-pRb (non-acetylated), P06400
T1 chain: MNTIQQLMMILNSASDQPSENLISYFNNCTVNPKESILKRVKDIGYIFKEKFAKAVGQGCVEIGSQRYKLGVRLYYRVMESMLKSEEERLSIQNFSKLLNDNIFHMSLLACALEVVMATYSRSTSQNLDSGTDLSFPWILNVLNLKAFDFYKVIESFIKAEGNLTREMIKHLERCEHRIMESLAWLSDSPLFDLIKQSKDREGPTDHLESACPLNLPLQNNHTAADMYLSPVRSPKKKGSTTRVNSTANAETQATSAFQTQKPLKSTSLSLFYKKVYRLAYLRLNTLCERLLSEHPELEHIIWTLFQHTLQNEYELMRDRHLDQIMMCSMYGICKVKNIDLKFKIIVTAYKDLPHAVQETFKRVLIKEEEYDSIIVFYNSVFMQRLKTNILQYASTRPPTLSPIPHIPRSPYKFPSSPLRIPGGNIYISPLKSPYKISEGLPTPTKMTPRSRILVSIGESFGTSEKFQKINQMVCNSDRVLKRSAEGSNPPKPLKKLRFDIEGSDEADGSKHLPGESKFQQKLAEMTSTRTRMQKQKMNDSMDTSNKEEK

B1: his-tagged p300 1195-1673 (protein)
chain: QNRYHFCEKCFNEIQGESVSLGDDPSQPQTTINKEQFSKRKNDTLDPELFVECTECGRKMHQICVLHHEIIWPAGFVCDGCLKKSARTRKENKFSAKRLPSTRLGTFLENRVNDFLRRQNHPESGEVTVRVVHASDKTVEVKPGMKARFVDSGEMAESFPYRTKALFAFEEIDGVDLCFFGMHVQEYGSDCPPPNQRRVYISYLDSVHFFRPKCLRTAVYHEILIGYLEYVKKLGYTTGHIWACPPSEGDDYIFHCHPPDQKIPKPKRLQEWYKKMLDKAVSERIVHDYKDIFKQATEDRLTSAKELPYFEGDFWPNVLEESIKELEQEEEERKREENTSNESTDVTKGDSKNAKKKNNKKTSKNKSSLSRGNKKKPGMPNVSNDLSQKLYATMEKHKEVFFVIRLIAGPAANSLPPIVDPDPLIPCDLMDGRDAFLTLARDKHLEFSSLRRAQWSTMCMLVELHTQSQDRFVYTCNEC
in vitro acetylation of GST-pRb with 14C acetyl CoA: GST-pRb could be acetylated by p300
